To fix the notation:
B1: H2CA-2-B2-IGFR (peptide)
peptide: GAPVDQLHEDFYDWFVRQVSQAATG
notes: on phage
B2: S395 (peptide)
peptide: GSLDESFYDWFERQL
B3: S326 (peptide)
peptide: GIISQSCPESFYDWFAGQVSDPWWCW
notes: also called G33
B4: S327 (peptide)
peptide: TFYSCLASLLTGTPQPNRGPWERCRKK
B5: S484 (peptide)
peptide: LDQEWAVQCEVYGRGCPSESFYDWFERQLG
B6: S438 (peptide)
peptide 1: ESFYDWFERQLGGGGK
peptide 2: DQEWAWVQCEVYGRGCPS
modifications: not fully specified (bridges); cysteine pairing not given here; also: C-terminus of chain 2 linked to Lys16 of chain 1, bond at chain A 16 to a chain's C-terminus
B7: S443 (peptide)
peptide 1: ESFYDWFERQLGGGGK
peptide 2: WVQCEVYGRGCPS
modifications: not fully specified (bridges); cysteine pairing not given here; also: C-terminus of chain 2 linked to Lys16 of chain 1, bond at chain A 16 to a chain's C-terminus
B8: S437 (peptide)
peptide 1: ESFYDWFERQLGGGGK
peptide 2: LDQEWAWVQCEVYGRGCPS
modifications: not fully specified (bridges); cysteine pairing not given here; also: C-terminus of chain 2 linked to Lys16 of chain 1, bond at chain A 16 to a chain's C-terminus
B9: S439 (peptide)
peptide 1: ESFYDWFERQLGGGGK
peptide 2: QEWAWVQCEVYGRGCPS
modifications: not fully specified (bridges); cysteine pairing not given here; also: C-terminus of chain 2 linked to Lys16 of chain 1, bond at chain A 16 to a chain's C-terminus
B10: S423 (peptide)
peptide 1: ESFYDWFERQLGK
peptide 2: ACAWPTYWNCG
modifications: not fully specified (bridges); cysteine pairing not given here; also: C-terminus of chain 2 linked to Lys13 of chain 1, bond at chain A 13 to a chain's C-terminus
B11: S440 (peptide)
peptide 1: ESFYDWFERQLGGGGK
peptide 2: EWAWVQCEVYGRGCPS
modifications: not fully specified (bridges); cysteine pairing not given here; also: C-terminus of chain 2 linked to Lys16 of chain 1, bond at chain A 16 to a chain's C-terminus
B12: S432 (peptide)
peptide 1: ESFYDWFERQLGGGGK
peptide 2: CEVYGRGCPS
modifications: not fully specified (bridges); cysteine pairing not given here; also: C-terminus of chain 2 linked to Lys16 of chain 1, bond at chain A 16 to a chain's C-terminus
B13: S433 (peptide)
peptide 1: ESFYDWFERQLGGGGK
peptide 2: WLDQEWAWVQ
modifications: also: C-terminus of chain 2 linked to Lys16 of chain 1, bond at chain A 16 to a chain's C-terminus
B14: S441 (peptide)
peptide 1: ESFYDWFERQLGGGGK
peptide 2: WAWVQCEVYGRGCPS
modifications: not fully specified (bridges); cysteine pairing not given here; also: C-terminus of chain 2 linked to Lys16 of chain 1, bond at chain A 16 to a chain's C-terminus
B15: S442 (peptide)
peptide 1: ESFYDWFERQLGGGGK
peptide 2: AWVQCEVYGRGCPS
modifications: disulfide II:5-II:12 (inferred); also: bond at chain A 16 to a chain's C-terminus
B16: S444 (peptide)
peptide 1: ESFYDWFERQLGGGGK
peptide 2: VQCEVYGRGCPS
modifications: not fully specified (bridges); cysteine pairing not given here; also: C-C branched: chain 2 C-terminus bonded to Lys16 side chain
B17: R20β-4-E8-IR (peptide)
peptide: VRGFQGGTVWPGYEWLRNAA
notes: tags and coat protein not included; Formula 10 (Group 6) clone
B18: 40F-4-B1-IGFR (peptide)
peptide: GLDHSDAVGVHLGFAWPAQARGRWEAGGLEDTWAGYDWL
notes: as for B17
B19: 20E2A-4-G11-IGFR (peptide)
peptide: MNVFVSFYDAIDQLVCQRIGC
notes: library tags and phage coat protein not included
B20: 40F-4-D1-IGFR (peptide)
peptide: LSCLAYSRHGIWRPSTDLGLGRSVGEGSVSTRWRGYDWFE
notes: as for B17
B21: B6Hα-3-F1-IR (peptide)
peptide: CSMAAVAEAGDDDDPFYHKLSELCQGS
notes: as for B19
B22: 20E2Bβ-3-C7-IR (peptide)
peptide: QSGSGDFYDWLSRLIRGNGDG
notes: as for B19
B23: B6Hα-1-B3-IR (peptide)
peptide: GCITAENGAGDPFYHKLSELGGCS
notes: as for B19
B24: B6Hα-3-E6-IR (peptide)
peptide: CGAKMTGTPNDPFYHKLSELLQRG
notes: as for B19
B25: B6Hα-2-D8-IR (peptide)
peptide: SSETAKMVTGTRDDPFYHKLSELVQGS
notes: as for B19
B26: B6Hα-3-E5-IR (peptide)
peptide: RCGDEEGWQENRRDDPFYHKLSELFGGC
notes: as for B19
B27: 20E2A-3-A4-IGFR (peptide)
peptide: AGSVTSFYDAMEQLVATGTSA
notes: as for B19
B28: B6Hα-3-F7-IR (peptide)
peptide: SRVAATKEKRPSDDPFYHKLSELLQGS
notes: as for B19
B29: 20E2A-3-A3-IGFR (peptide)
peptide: GHYFGSFYDAIDQLVAGMLPG
notes: as for B19
B30: H2 (peptide)
peptide: VTFTSAVFHENFYDWFVRQVS
B31: 20C11 (peptide)
peptide: DRAFYNGLRDLVGAVYGAWD
B32: D8 (synthetic peptide) (peptide)
peptide: KWLDQEWAWVQCEVYGRGCPSKK
B33: 2A9 (peptide)
peptide: LCQSWGVRIGWLTGLCP

Positions of bridges follow the written chain, without caps; N, C: chain ends. Chains are numbered I, II in the order given. No end group written: not given here.

The target in the first assay is T1, soluble IGF-1R (recombinant human IGF-1R extracellular domain, R&D Systems Cat. # 391-GR/CF) (human, UniProt P08069 31-935).
T1 construct: extracellular domain; Bought protein; coated on plates (phage ELISA, TRF) or Eu-labelled (TR-FRET); also called sIGF-1R; rhIGF-1R
Briefly: phage ELISA. (In general: ELISA stands for enzyme-linked immunosorbent assay.)
Take B1: the ratio over background turned out to be 3.4 ratio.

A further assay concerns the target T2, soluble human insulin receptor-immunoglobulin heavy chain chimera (human, UniProt P06213 28-956, limits assumed).
T2 construct: extracellular domain; also called sIR-Fc; IR (prepared according to Bass et al., 1996); not shown: immunoglobulin heavy chain constant domains (Bass et al., 1996)
The assay can be described thus: phage ELISA.
As for B1, the ratio over background was 1 ratio.

The next assay concerns the target T3, human insulin receptor (HIR) (human, UniProt P06213-2 28-1370, limits assumed).
T3 construct: detergent-solubilised receptor
The assay can be described thus: 125I-insulin competition on purified HIR.
The term Kd denotes a measure of binding affinity in units of concentration. A low value points to tighter binding. With B2, the Kd worked out at 81 nM. In turn, B3 registered an equilibrium dissociation constant (Kd) of 590 nM. B4 showed a Kd of 21 nM.

The target in another assay is T4, human insulin receptor (HIR) (human, UniProt P06213-2 28-1370, limits assumed).
T4 construct: Also used for the WGA-purified recombinant human insulin receptor of the kinase assay
Briefly: 125I-insulin competition on purified HIR.
Turning to B5, the dissociation constant Kd was determined as 87 nM. With B6, binding was characterised by a dissociation constant (Kd) of 30 nM.

Regarding B7, binding was put at a Kd of 170 nM. On the same count and under the same terms, to B8 belongs 0.69 nM; to B9, 46 nM; to B10, 62 nM.

In turn, B11 showed a dissociation constant Kd of 99 nM. As for B12, the Kd was 180 nM. B13 registered a Kd of 110 nM. The molecule B14 came in with a Kd of 120 nM.

For B15, the Kd came out at 160 nM. In the case of B16, the Kd came out at 190 nM.

For the next assay, the target named is T5, Soluble IGF-1R (R&D Systems, Cat. # 391-GR/CF) (human, UniProt P08069 31-935).
T5 construct: extracellular domain; the precursor is cleaved into alpha and beta subunits; also called sIGF-1R
The assay can be described thus: phage ELISA, receptor coated on plate; A405 over non-fat milk.
For the molecule B17, the “ratio over background (IGF-1R)” value came out at 34.9 fold over background. On the same count and under the same terms, the same measure for B18: 3 fold over background; for B19: 3.3 fold over background. On to B20, for which the “ratio over background (IGF-1R)” value was 4.6 fold over background. On the same count and under the same terms, to B21 belongs 2.4 fold over background; to B22, 3.1 fold over background. Turning to B23, the “ratio over background (IGF-1R)” value was 3.2 fold over background. Same read-out and setting: the same measure for B24: 2.3 fold over background; for B25: 3 fold over background; for B26: 2.9 fold over background.

With B27, the “ratio over background (IGF-1R)” value turned out to be 2.5 fold over background.

For B28, the “ratio over background (IGF-1R)” value came out at 3.1 fold over background. Still for that read-out and setting: to B29 belongs 3 fold over background.

The target in another assay is T6, Insulin receptor prepared according to Bass et al., 1996 (soluble IR-immunoglobulin chimera) (human, UniProt P06213 28-956).
T6 construct: extracellular domain; also called sIR-Fc; soluble IR (Bass construct); not shown: immunoglobulin constant domains replacing the transmembrane and intracellular domains
The description is as above.
With B17, the “ratio over background (IR)” value stood at 3.6 fold over background.

As to B18, the “ratio over background (IR)” value came to 0.2 fold over background. For B19, the “ratio over background (IR)” value came to 1.3 fold over background. Consider B20, for which the “ratio over background (IR)” value was found to be 0.3 fold over background.

On to B21, for which the “ratio over background (IR)” value amounted to 1.3 fold over background. With B22, the “ratio over background (IR)” value was 1.5 fold over background. In the case of B23, the “ratio over background (IR)” value is 1.1 fold over background. With B24, the “ratio over background (IR)” value was 1.2 fold over background. Still for that read-out and setting: to B25 belongs 1 fold over background; to B26, 1 fold over background; to B28, 1 fold over background. Still for that read-out and setting: the same measure for B29: 1.5 fold over background.

Another assay concerns the target Insulin Receptor (IR) (UniProt P06213 28-956, limits assumed). Briefly: BIAcore competition: IR pre-incubated with about 40 µM peptide, residual binding to immobilised insulin. The method, then:
Flowcell-1 was used for background binding to correct for any non-specific binding. […] The surface was regenerated with 25 mM NaOH.
Background: SPR reads the build-up and loss of mass on a sensor chip optically.
In the case of B30, the “% Binding” value worked out at 27% and the “Result (RUs)” value stood at 34.6 RU. For B31 the same measures were 38% and 49 RU. As for B32, the “% Binding” value was found to be 33% and the “Result (RUs)” value came out at 41.6 RU.

For the molecule B33, the “% Binding” value worked out at 100% and the “Result (RUs)” value is 128 RU.

The values are drawn from US20040023887A1 (published 2004).
